Values of other authors, collected in patent US20090069376A1, “VLA-4 Antagonists” (priority 2005, published 2009).

Biological target: VLA-4 (Homo sapiens, UniProt P13612)
Conditions: early clinical trials

receptor occupancy: > 80%
Substance: natalizumab
